Data on two molecules can be found in publication PMC12136191, “Structural basis for mTORC1 regulation by the CASTOR1-GATOR2 complex” (Research Square, 2025).

B2: MIOS, subunit within purified GATOR2 (natural protein)
chain: MSGTKPDILWAPHHVDRFVVCDSELSLYHVESTVNSELKAGSLRLSEDSAATLLSINSDTPYMKCVAWYLNYDPECLLAVGQANGRVVLTSLGQDHNSKFKDLIGKEFVPKHARQCNTLAWNPLDSNWLAAGLDKHRADFSVLIWDICSKYTPDIVPMEKVKLSAGETETTLLVTKPLYELGQNDACLSLCWLPRDQKLLLAGMHRNLAIFDLRNTSQKMFVNTKAVQGVTVDPYFHDRVASFYEGQVAIWDLRKFEKPVLTLTEQPKPLTKVAWCPTRTGLLATLTRDSNIIRLYDMQHTPTPIGDETEPTIIERSVQPCDNYIASFAWHPTSQNRMIVVTPNRTMSDFTVFERISLAWSPITSLMWACGRHLYECTEEENDNSLEKDIATKMRLRALSRYGLDTEQVWRNHILAGNEDPQLKSLWYTLHFMKQYTEDMDQKSPGNKGSLVYAGIKSIVKSSLGMVESSRHNWSGLDKQSDIQNLNEERILALQLCGWIKKGTDVDVGPFLNSLVQEGEWERAAAVALFNLDIRRAIQILNEGASSEKGDLNLNVVAMALSGYTDEKNSLWREMCSTLRLQLNNPYLCVMFAFLTSETGSYDGVLYENKVAVRDRVAFACKFLSDTQLNRYIEKLTNEMKEAGNLEGILLTGLTKDGVDLMESYVDRTGDVQTASYCMLQGSPLDVLKDERVQYWIENYRNLLDAWRFWHKRAEFDIHRSKLDPSSKPLAQVFVSCNFCGKSISYSCSAVPHQGRGFSQYGVSGSPTKSKVTSCPGCRKPLPRCALCLINMGTPVSSCPGGTKSDEKVDLSKDKKLAQFNNWFTWCHNCRHGGHAGHMLSWFRDHAECPVSACTCKCMQLDTTGNLVPAETVQP
notes: MIOS, subunit of GATOR2; codon optimized synthetic DNA; The MIOS chain of m1, written alone for the pairs that touch in the structure; also called front face MIOS; source: HEK293-GNTI cells, co-expressed with the other GATOR2 subunits, purified as part of GATOR2

Series [1] concerns the molecule itself. Briefly: cryo-EM structure; purified GATOR2 at 0.45 mg/mL with 3-fold molar excess of CASTOR1^apo, 45 minutes on ice, frozen on grids; no Arg; Titan Krios.
Series [2] has as its target B2. The series is described as above. Particulars: both partners purified.

B1: CASTOR1 S111A/D304A (apo-locked mutant) (natural protein)
chain: MELHILEHRVRVLSVARPGLWLYTHPLIKLLFLPRRSRCKFFSLTETPEDYTLMVDEEGFKELPPSEFLQVAEATWLVLNVSSHSGAAVQAAGVTKIARSVIAPLAEHHVAVLMLSTYQTDFILVREQDLSVVIHTLAQEFDIYREVGGEPVPVTRDDSSNGFPRTQHGPSPTVHPIQSPQNRFCVLTLDPETLPAIATTLIDVLFYSHSTPKEAASSSPEPSSITFFAFSLIEGYISIVMDAETQKKFPSDLLLTSSSGELWRMVRIGGQPLGFDECGIVAQIAGPLAAADISAYYISTFNFAHALVPEDGIGSVIEVLQRRQEGLAS
notes: CASTOR1 (arginine sensor) with S111A and D304A; codon optimized synthetic DNA; Homodimer in the structure; also called CASTOR1^apo; 6X-His-CASTOR1^apo; source: E. coli BL21(DE3), pET-28a+, purified (Ni-NTA, Superdex 200 gel filtration)
As to B1, the binding result in series [1] and in series [2] was “binds” each time.

Regarding B2, the binding result in series [1] is given as “binds”.
